From a protein production outcome set (Wang et al. 2014)

Assay: label from the status in PepcDB records

Sequence	protein production
MSLGHIIVTGAGSGLGRALTIGLVERGHQVSMMGRRYQRLQQQELLLGNAVIGIVADLAHHEDVDVAFAAAVEWGGLPELVLHCAGTGEFGPVGVYTAEQIRRVMESNLVSTILVAQQTVRLIGERGGVLANVLSSAAQVGKANESLYCASKWGMRGFLESLRAELKDSPLRLVNLYPSGIRSEFWDNTDHVDPSGFMTPEDAAAYMLDALEARSSCHVTDLFIGRNEGHHHHHH	not failed
GMQGYFFNTRRDLFKDIRVREALSYAFDFEWSNKNLFFGQYTRTKSFFDNSELASFGTPSPQEREWLTPFKEQLPEGIFDQPFTLPTTKGDGNIRPQLKRAQQLLKEAGYEIKNKKLIHTTTGQPFVFELLLLSPAMERVALPFKRNLATLGIEMKIRTIDLTQYINRLREFDYDMIVGVIGQSLSPGNEQRYYWHSSSKDERGSKNYAGIDHPAVDRLVEMVVNAKDRRELVDYTRALDRVLLWNHYVIPHFHNR	not failed
MPNSRLEGELPGGGVVTFDTDLPIAAHADEIADLIKHHQVVVVAGETGSGKTTQLPKICLALGRRQIAHTQPRRIAARSVAERVAEEMGVELGEQVGYQVRFTRRASSDTALTVMTDGVLLAEISHDRDLCAHDTIIIDEAHERSLNIDFLLGYLKQLLPRRPDLKVIITSATIDTARFSAHFDDAPVIEVSGRTYPVEVRYRPLDPSEQIRPDDEDDIDDEDELLHRPSAPSLTSPDDEVVDQVTGICRAVQELCREESGDILVFLAGEQEIRETAEALADLNLSNTEVLPLFARLSAAEQHRVFTPHTGRRIVLATNVAETSLTVPGIRYVIDPGTARISRYSVRTKVQRLPIEPVSQASANQRAGRCGRVAPGICIRLYSQTSFESRPEFTEPEILRTNLAAVILQMAQARLGAITDFPFVEAPDRSRINDGIRLLDELGALKPGHRDASRLTKIGHQLARVPLDPRLGRMLLEGARQGSLAEVLVIVAALSIRDVRERPADKREEADAFHRRFATEANLLQTLQAADNTDNNQVGDWSQVRRQHIHQEAANTAKPGPPARHTPHTRGKISPRPQAGGIDEGGDIMAIHRLWRYLRHQRRQMGSSAFRRMCRAEYINYLRVREWDDLHGQLRQIAKELHLEVNRTSAPTDRVLVALLSGLLSHIGLVQVRQPAKRHGQRPGPQEYLGARGTKFAINPGSLLARKSPELVVAVELVETSRLWARTVAAVQPEWVEEVAGPLIRRSWAVPHWAASTASVVATERGTLFGVPLWADRRVTYGRIDPVASRQIFIRSALVERNWRSDHGFLKHNDRVRDEAADLEERSRQRGLVADDDAIFAFYDRRIPDGIVSGSHFDAWWRRVQDRHQLDLSIDDLVDSGSVDADAFPDHWKVGNLELPVRYVFEPGSGHDGVTVTIPLALLNQVPTAPFSWQVPGLRTELATELIRALPKRIRTQLVPAPDRARAALTWLEDHDADRHAPFTNELGRALRTLTGVIINPDDWNIAAIPAHLRIGFDITDAEGRPVGKKSKKNGKDKLKGSQPAPIARSEDLDALQTDLAPKVSQSLTKAAGQPQIHGAKEWTFDPIPKRVDLSRKGPDAVGYPCLVDEGDSVGTTVLDTPRAQRTSHASGVVKLLVLNLPDPTKWVVTHMDNATKLALATSPYPSVPALLADARHKAVASVAQEKAGDLSGIRDKKTFDDLALVVRQDQADRMARVVRTAGRILSRVVAARQALATVSDPAIHADIVAQIDDLVFENFISATPDPWYDDMPRWIQGVSVRIESLMTNPSRDPRQMAELEPLLADYDALCEEQPAGKLPAEVEEIGFMLEELRVQYFAQKLGTRVSVSPKRIRMAIAKLS	failed
MIYLLLGAVIITFLLWPRGRALLKGDGWRVGAGAAAIAAFAVAAYATIRGAWGTGIVLGVIGLWSVTEARRRPIVRREVVHPPKPELSLSEARAILGVGPEASLAEVKAAYNRLIQMAHPDKGGTEGLAAQLNAARDRLIKPRGSARVEP	failed
MAQPDREARPQFSHPTRQILTMLIVIGLSGFGVFVAMPRVLPVFQANPYLNGFILLVFIIGVLACFWQVVQLIGSVRWIEDFAAGQEREDTTPPSMLAPLASLLRSRAARMQISSSSTRSILDSVAERIEEEREITRYITNVLIYLGLLGTFFGLATTIPAVVDTIRSLNPQEGEEGLAVFNRLMTGLEAQLGGMGTAFGSSLLGLAGSLIVGLLELFTGHGQNRFYRELEEWLSTITRVGFSSGEEGHSESGAIAGVIDTMVEQMDALHAMFAASEEGRAEISGKLGALVETIAEMNQRQAETEDVTAALDRVAAGQETLIDFLREQGAHDGIDAESRMRLRSIDVQMLRILEEISAGRQESMAELRKDIELLAKALSVPRRPLRGVTRDEG	failed
MTSRTRDTDTDRATDTDTDRATATLDHAMARSQGLDTLLRDLTDRAVVQVPGAVACSVTVRRADRLMTLAGSTGLPSGLDLRQYENGSGPCVDAAESGDAQYCADLAEETRWPAYTEYALATGVRCVLALPLPIEGETGAALNLYGLVPGSLVQGLDAARAFAERAADAVNEALRIERRQASAADVRTALLSRSVIDQAVGMLMARERIDAHRALERLRRASQDRNVKLRDLCAQVVARASGGASHRGQ	failed
MGKDFKSLVTRCIYVGKMNDNAKKLKIATEELKDLGNNVMKRVKLCEEQQQMKRLDKVQTWLRQADTVIKEAEEYFLMSSSSSSSGLISSSHKMEKKICKKLKEVQEIKSRGMFEVVAESTGGIGGGAGGGLTIKDSDEQTIGLEAVSGLVWRCLTMENTGIIGLYGVEGVGKTTVLTQVNNRLLQQKANGFDFVLWVFVSKNLNLQKIQDTIREKIGFLDRTWTSKSEEEKAAKIFEILSKRRFALFLDDVWEKVDLVKAGVPPPDAQNRSKIVFTTCSEEVCKEMSAQTKIKVEKLAWERAWDLFKKNVGEDTIKSHPDIAKVAQEVAARCDGLPLALVTIGRAMASKKTPQEWRDALYILSNSPPNFSGQIS	failed
MTNPEATDKEGKNYALFIGDTVLVGEQSPASVMTPSKKKIKNVGIFIKDDSDEEDVDDKKTAKEDQGTEILGRSKRNAVLESKLRNEINTEEKRKEHQRELAQQLNERAKDRLARQGNSKEVEKVRKNTVSYKSISQMPREPEVKELKLYVDKKYETV	failed
MSYRTISAEEAVMAIKSGDRVFLHTAAATPLRLIEAMVSRASHLRDVEIVSLHTEGDAPYVRPEFQESFRLNAFFVGRNVRSAVQCGYADAIPIFLSDVPAMFYDGVMPLDVALVHVSPPDRHGYCSLGVSVDATRAAVHTARHVIAQVNPNMPRTHGEGLLHVSKIHSLVEVDDPLPETPRHELTDVERQIGQHIASIVEDGATLQMGIGAIPDATLAALTNHKDLGIHSEMFSDGVVDLVEKGVVNGRCKKTHNEIIVASFLVGTRKLYDFVDDNPLVEMFGSDYVNDTKEIRKNPKVTAINSAIEIDMTGQVCADSIGTRHFSGVGGQMDFIRGAALSPGGKPIIALPATTRKGESRIVTQLKPGAGVVTTRAHVQYVVTEYGIVNLHGKNLRQRAEALATIAHPDFREEILRQAHELYGRKSNCLID	failed
MSKVKIELFTSPMCPHCPAAKRVVEEVANEMPDAVEVEYINVMENPQKAMEYGIMAVPTIVINGDVEFIGAPTKEALVEAIKKRL	not failed
MLDLVSSKTTPVFSLVAFAVIHSLTASLPFKRMVMKAAGPRAEKLYLPAYSLVAVLTVLPLAYQLYKNPGRILYKIPSPWRWLMVGGQVIAGILAPMAFWNAPHRFKIRSQLSGPQASEEGSLKIKGIYRWVRDPFLLSGLVVMLLTPFMTVNLLIVYLLTTVYLFLGSLHWETRLVAQFGDEYREYQKKVHRIIPELKGSVKNPGDKASE	failed
MLQIIVPMAGAGSRFAVAGYTDPKPLIPVHGVPMIKVVIDNLTPDCPHRFIFICQAEQVAAYGLREKLNAWAPGCGIVELGGLTGGAACTVYAARHLINYDQQVMIANSDQYVDVDINAYLHAMNECDAAGLIMTMKASDPKWSFVGFDSQGHINRVVEKEVISDEATVGIYNFRSGGQLVSAIEAMVLKDLRVNGEFYVAPAYNELIEQGAKVIHYSIGAEGHGMYGLGIPVDLNLFLSLPLSRQAASGVGNLEHHHHHH	failed
VGGFTWDLSANLSSVANKIISLPYNGIENNRVGGYEVAVGKGTNATKWIAGRQEGGKLGEMVAYKQNHIFKSWDDVKEHANMMIDEVANLYGPGLASEYAGKEGWKPIEPGDVCWEDINGDNKINGLDREVVGNIFPKVTGGFSSTLSWKGISLYARFDYALGHTLYNDLAARTLGQYQGAFNIITEVKDMWSEDNPNSDLPAFYYADQLAKKNITRSNNASASRHNNSSRLYEKADYLALRELTLSWDLPKAWTSKAFIQNASVYVTGQNLFYVTGYTGTSPEPVLTNSDNNENLYGVDQGRYPTPRTVLFGLSVTF	failed
